# Test results published in paper PMC11272584 (Nature Metabolism, 2024).
# Where a chain is given by its changes, count along the chain named.
# Columns and labels:
# [1] = biological target: T1, GIPR R38L (human) (UniProt P48546)
# T1 sequence: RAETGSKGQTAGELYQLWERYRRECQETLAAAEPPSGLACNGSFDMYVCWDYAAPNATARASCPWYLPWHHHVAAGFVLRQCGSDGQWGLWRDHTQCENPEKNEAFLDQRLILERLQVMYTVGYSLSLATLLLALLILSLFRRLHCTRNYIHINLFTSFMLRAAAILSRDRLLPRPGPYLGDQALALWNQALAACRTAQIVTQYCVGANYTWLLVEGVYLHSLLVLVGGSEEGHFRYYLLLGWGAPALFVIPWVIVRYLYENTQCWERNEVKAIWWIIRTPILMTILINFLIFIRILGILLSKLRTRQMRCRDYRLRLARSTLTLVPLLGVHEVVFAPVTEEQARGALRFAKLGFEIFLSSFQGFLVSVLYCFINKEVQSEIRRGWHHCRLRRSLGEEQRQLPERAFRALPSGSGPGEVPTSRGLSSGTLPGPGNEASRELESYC
# [2] = biological target: T2, GIPR E291K (human) (UniProt P48546)
# T2 sequence: T1 sequence with L17R, E270K
# [3] = biological target: T3, GIPR E461* (human) (UniProt P48546)
# T3 sequence: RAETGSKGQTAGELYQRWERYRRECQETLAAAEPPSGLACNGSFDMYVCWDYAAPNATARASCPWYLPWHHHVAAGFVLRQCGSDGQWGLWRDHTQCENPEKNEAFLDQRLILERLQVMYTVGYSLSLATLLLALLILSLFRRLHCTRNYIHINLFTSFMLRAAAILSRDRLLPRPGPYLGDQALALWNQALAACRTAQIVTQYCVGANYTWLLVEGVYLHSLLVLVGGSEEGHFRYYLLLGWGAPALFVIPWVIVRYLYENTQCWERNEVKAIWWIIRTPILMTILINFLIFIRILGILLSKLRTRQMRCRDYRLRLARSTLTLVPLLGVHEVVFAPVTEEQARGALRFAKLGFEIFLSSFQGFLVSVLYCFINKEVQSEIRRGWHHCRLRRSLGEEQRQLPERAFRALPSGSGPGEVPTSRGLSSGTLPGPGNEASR
# [4] = biological target: T4, GIPR I221M (human) (UniProt P48546)
# T4 sequence: T1 sequence with L17R, I200M
# [5] = biological target: T5, GIPR H166Y (human) (UniProt P48546)
# T5 sequence: T1 sequence with L17R, H145Y
# [6] = biological target: GIPR L13F (human) (UniProt P48546)
# [7] = biological target: T6, GIPR L304R (human) (UniProt P48546)
# T6 sequence: T1 sequence with L17R, L283R
substance,measurement,setting,value
β-arrestin 2 (Rluc8-Arrestin-3-Sp1) (from UniProt P32121 1-409) (natural protein),β-arrestin 2 recruitment (BRET) on stimulation with GIP(1-42): logEC50 (Arrestin) (log M (inferred)),[1],-9
same,β-arrestin 2 recruitment (BRET) on stimulation with GIP(1-42): logEC50 (Arrestin) (log M (inferred)),[2],-8.48
same,β-arrestin 2 recruitment (BRET) on stimulation with GIP(1-42): logEC50 (Arrestin) (log M (inferred)),[3],-9.17
same,β-arrestin 2 recruitment (BRET) on stimulation with GIP(1-42): logEC50 (Arrestin) (log M (inferred)),[4],-9.38
same,β-arrestin 2 recruitment (BRET) on stimulation with GIP(1-42): logEC50 (Arrestin) (log M (inferred)),[5],-9.22
same,β-arrestin 2 recruitment (BRET) on stimulation with GIP(1-42): logEC50 (Arrestin) (log M (inferred)),[6],-8.75
same,β-arrestin 2 recruitment (BRET) on stimulation with GIP(1-42): logEC50 (Arrestin) (log M (inferred)),[7],-9.41
